B1: Strep-His-TEV-HaloTag-3C-Xenopus γTuNA (Xenopus Cdk5rap2 aa 56–101), wildtype [Xenopus laevis] / itself (parent)
chain: MKDFEKQIAELKKENFNLKLRIYFLEEQVQQKCDNSSEDLYRMNIE
B2: Strep-His-TEV-HaloTag-3C-human γTuNA (human CDK5RAP2 aa 53–98), wildtype [human] / itself (parent)
chain: SPTRARNMKDFENQITELKKENFNLKLRIYFLEERMQQEFHGPTEH

The variants in one assay derive from B1. Briefly: size-exclusion chromatography (self-association / dimerization). The settings on record: with itself; 50 µM (monomer); Superdex 200 increase 10/300 GL; read off a plot.
In the case of chain 1 F4A, the screen value came to 13.4 mL.

With chain 1 I8D L11D, the screen value was 15 mL. The same measure, in the same setting: as for chain 1 I8A, the figure is 13.5 mL; as for chain 1 L18A, 14.2 mL. For chain 1 F16A, the screen value was found to be 13.3 mL. Still for that read-out and setting: as for chain 1 L11A, the figure is 14 mL.

Staying with this assay, now noted: with itself; 50 µM (monomer); Superdex 200 increase 10/300 GL; main peak, a minor shoulder near 13.2 mL is also drawn; read off a plot.
As for chain 1 L18A, the screen value was determined as 14.2 mL.

In another assay the parent is B2. The assay is described as above. The settings on record: with itself; 50 µM (monomer); Superdex 200 increase 10/300 GL; read off a plot.
Take chain 1 I15D L18D: the screen value stood at 15.1 mL.

On to chain 1 I15A L18A, for which the screen value is 15.1 mL.

The same assay, now with this note: with itself; 50 µM (monomer); Superdex 200 increase 10/300 GL; main peak, a minor peak near 12.9 mL is also drawn; read off a plot.
Regarding chain 1 F11D I15D L18D, the screen value was found to be 15.1 mL.

Still in this assay, the particulars now being: with itself; 50 µM (monomer); Superdex 200 increase 10/300 GL; main peak, a minor peak near 13.1 mL is also drawn; read off a plot.
As for chain 1 F11A I15A L18A L25A, the screen value came out at 15 mL.

These data come from PMC9859039, “The conserved centrosomin motif, γTuNA, forms a dimer that directly activates microtubule nucleation by the γ-tubulin ring complex (γTuRC)” (eLife, 2022).
